The series concerns the molecule itself. Briefly: fluorescence polarisation. A general note: In fluorescence polarisation assays a small probe gives low polarisation when free and higher when bound to something large.

B1: Wild-type FokI restriction endonuclease (enzyme)
chain: KIRTFGWVQNPGKFENLKRVVQVFDRNSKVHNEVKNIKIPTLVKESKIQKELVAIMNQHDLIYTYKELVGTGTSIRSEAPCDAIIQATIADQGNKKGYIDNWSSDGFLRWAHALGFIEYINKSDSFVITDVGLAYSKSADGSAIEKEILIEAISSYPPAIRILTLLEDGQHLTKFDLGKNLGFSGESGFTSLPEGILLDTLANAMPKDKGEIRNNWEGSSDKYARMIGGWLDKLGLVKQGKKEFIIPTLGKPDNKEFISHAFKITGEGLKVLRRAKGSTKFTRVPKRVYWEMLATNLTDKEYVRTRRALILEILIKAGSLKIEQIQDNLKKLGFDEVIETIENDIKGLINTGIFIEIKGRFYQLKDHILQFVIPNRGVTKQLVKSELEEKKSELRHKLKYVPHEYIELIEIARNSTQDRILEMKVMEFFMKVYGYRGKHLGGSRKPDGAIYTVGSPIDYGVIVDTKAYSGGYNLPIGQADEMQRYVEENQTRNKHINPNEWWKVYPSSVTEFKFLFVSGHFKGNYKAQLTRLNHITNCNGAVLSVEELLIGGEMIKAGTLTLEEVRRKFNNGEINF
For the protein B1, the binding result is listed as “binds”.
